Measurements reported in patent US20250075006A1 (SHANDONG SIMCERE BIOPHARMACEUTICAL, published 2025).
Each block holds one binder with its values, some of them ahead of it.

How the values were obtained:
[1] = target: T1, human GUCY2C protein, full length, on cells (human, UniProt P25092 24-1073); experiment: FACS on 293T-hGUCY2C cells, MFI
T1 construct: whole, on cells; also called endogenous tumor cells HT55
Experimental: (§1) Then a complete medium was added to stop the digestion, and the cells were blown into a single cell suspension. After counting, the cells were centrifuged, and the cell pellet was resuspended to 2×10⁶ cells/mL in an FACS buffer (PBS+2% fetal bovine serum), and added to a 96-well FACS reaction plate at 100 μL/well. The plate was centrifuged, and the supernatant was discarded. An antibody sample to be tested (diluted in a 3-fold gradient from a starting concentration of 100 nM) was added at 50 μL/well and uniformly mixed with the cells, and the mixture was incubated at 4° C. for 1 h. […] The results were tested and analyzed by FACS (FACS Canto™, purchased from BD) after the plate was centrifuged and washed 3 times with a PBS buffer and resuspended with 100 μL of PBS. Data analysis was performed by software (FlowJo) to obtain the mean fluorescence intensity (MFI) of the cells. Then, analysis was performed by software (GraphPad Prism8), data were fitted, and EC50 values were calculated.

[2] = target: T1, human GUCY2C protein, full length, on …; experiment: FACS on 293T-hGUCY2C cells, MFI; remark: listed apart in the source
Experimental: as §1, with “5-fold” for “3-fold”, “calculated. As shown in A-C in FIG. 14, PF1608-hIgG1 binds strongly to GUCY2C at the protein level, but weakly at the cellular level. The humanized antibodies of the present application are all capable of binding effectively to recombinant cells expressing human GUCY2C protein and substantially maintain the equivalent binding ability of the recombinant antibodies.” for “calculated.”

[3] = target: T1, human GUCY2C protein, full length, on …; experiment: FACS on 293T-hGUCY2C cells, MFI; remark: listed apart in the source
Experimental: as §1, with “5-fold” for “3-fold”, “calculated. As shown in A-C in FIG. 14, PF1608-hIgG1 binds strongly to GUCY2C at the protein level, but weakly at the cellular level. The humanized antibodies of the present application are all capable of binding effectively to recombinant cells expressing human GUCY2C protein and substantially maintain the equivalent binding ability of the recombinant antibodies.” for “calculated.”

[4] = target: T1, human GUCY2C protein, full length, on …; experiment: FACS on 293T-hGUCY2C cells, MFI; remark: listed apart in the source
Experimental: as §1, with “5-fold” for “3-fold”, “calculated. As shown in A-C in FIG. 14, PF1608-hIgG1 binds strongly to GUCY2C at the protein level, but weakly at the cellular level. The humanized antibodies of the present application are all capable of binding effectively to recombinant cells expressing human GUCY2C protein and substantially maintain the equivalent binding ability of the recombinant antibodies.” for “calculated.”

[5] = target: T1, human GUCY2C protein, full length, on …; experiment: FACS on HT55 tumor cells (endogenous GUCY2C), MFI
Experimental: as §1
The binding of the recombinant antibody to the endogenous tumor cell HT55 was detected in the same manner.

[6] = target: T1, human GUCY2C protein, full length, on …; experiment: FACS on HT55 tumor cells (endogenous GUCY2C), MFI; remark: listed apart in the source
[7] = target: T1, human GUCY2C protein, full length, on …; experiment: FACS on HT55 tumor cells (endogenous GUCY2C), MFI; remark: listed apart in the source
[8] = target: T1, human GUCY2C protein, full length, on …; experiment: FACS on HT55 tumor cells (endogenous GUCY2C), MFI; remark: listed apart in the source
[9] = target: T2, Cyno GUCY2C ECD (his-tagged cynomolgus monkey GUCY2C protein extracellular domain fusion protein) (cynomolgus monkey, UniProt P25092 24-430 (human entry)); experiment: BLI Gator, antibody on anti-human Fc probe, antigen in solution
T2 construct: also called monkey GUCY2C-his; monkey GUCY2C-His
T2 chain: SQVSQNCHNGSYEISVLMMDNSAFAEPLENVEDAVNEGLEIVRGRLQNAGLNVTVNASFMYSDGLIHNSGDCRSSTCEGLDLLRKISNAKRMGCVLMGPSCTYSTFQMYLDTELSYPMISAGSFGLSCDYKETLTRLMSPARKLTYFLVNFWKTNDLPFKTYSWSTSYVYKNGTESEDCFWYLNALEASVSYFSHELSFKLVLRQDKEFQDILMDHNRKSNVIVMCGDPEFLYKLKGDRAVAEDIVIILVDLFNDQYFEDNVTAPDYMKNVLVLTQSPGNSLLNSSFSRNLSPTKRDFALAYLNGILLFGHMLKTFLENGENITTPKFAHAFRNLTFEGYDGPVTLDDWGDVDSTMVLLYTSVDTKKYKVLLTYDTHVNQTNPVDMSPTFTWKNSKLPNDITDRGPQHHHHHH
Experimental: Next, we measured the affinity of the recombinant antibody by another method, and the specific procedures were as follows: the binding strength of the antibody to the antigen was assayed by acquiring and analyzing the signal change of the reflection interference spectrum on the surface of the optical probe by using thin film interference technology. First, the probe was equilibrated for 300 s with HBS-T+pH 7.4 (0.02% tween) as the mobile phase. 2 μg/mL of the antibody to be tested was captured by an anti-human FC probe (purchased from ProbeLife, PL168-160003) for 240 s, and then antigen proteins with the concentration of 200 nM and diluted two-fold were injected. Kon for 300 s and Koff for 600 s. The association and dissociation processes of the antibody with the antigen protein were recorded, and finally, the chip was regenerated using Glycine pH 2.0 (purchased from GE), wherein the mobile phase was HBS-T+pH 7.4 (0.02% tween), the regeneration time was 5 s, and the assay temperature was 30° C. Finally, according to a 1:1 binding model, the data were analyzed, and the antibody-antigen binding kinetics parameters, including the association rate constant Ka, the dissociation rate constant Kd, the equilibrium dissociation constant KD, and the maximum binding signal Rmax, were fitted. The association rate (Ka), dissociation rate (Kd), and binding affinity (KD) of the recombinant antibodies with the human GUCY2C and monkey GUCY2C proteins are shown in Table 6.
After the finally obtained various humanized antibodies were expressed and purified, the affinities of the humanized antibodies for the human and monkey GUCY2C proteins were separately assayed according to the method in Example 4.6.

T1 sequence (P25092 24-1073): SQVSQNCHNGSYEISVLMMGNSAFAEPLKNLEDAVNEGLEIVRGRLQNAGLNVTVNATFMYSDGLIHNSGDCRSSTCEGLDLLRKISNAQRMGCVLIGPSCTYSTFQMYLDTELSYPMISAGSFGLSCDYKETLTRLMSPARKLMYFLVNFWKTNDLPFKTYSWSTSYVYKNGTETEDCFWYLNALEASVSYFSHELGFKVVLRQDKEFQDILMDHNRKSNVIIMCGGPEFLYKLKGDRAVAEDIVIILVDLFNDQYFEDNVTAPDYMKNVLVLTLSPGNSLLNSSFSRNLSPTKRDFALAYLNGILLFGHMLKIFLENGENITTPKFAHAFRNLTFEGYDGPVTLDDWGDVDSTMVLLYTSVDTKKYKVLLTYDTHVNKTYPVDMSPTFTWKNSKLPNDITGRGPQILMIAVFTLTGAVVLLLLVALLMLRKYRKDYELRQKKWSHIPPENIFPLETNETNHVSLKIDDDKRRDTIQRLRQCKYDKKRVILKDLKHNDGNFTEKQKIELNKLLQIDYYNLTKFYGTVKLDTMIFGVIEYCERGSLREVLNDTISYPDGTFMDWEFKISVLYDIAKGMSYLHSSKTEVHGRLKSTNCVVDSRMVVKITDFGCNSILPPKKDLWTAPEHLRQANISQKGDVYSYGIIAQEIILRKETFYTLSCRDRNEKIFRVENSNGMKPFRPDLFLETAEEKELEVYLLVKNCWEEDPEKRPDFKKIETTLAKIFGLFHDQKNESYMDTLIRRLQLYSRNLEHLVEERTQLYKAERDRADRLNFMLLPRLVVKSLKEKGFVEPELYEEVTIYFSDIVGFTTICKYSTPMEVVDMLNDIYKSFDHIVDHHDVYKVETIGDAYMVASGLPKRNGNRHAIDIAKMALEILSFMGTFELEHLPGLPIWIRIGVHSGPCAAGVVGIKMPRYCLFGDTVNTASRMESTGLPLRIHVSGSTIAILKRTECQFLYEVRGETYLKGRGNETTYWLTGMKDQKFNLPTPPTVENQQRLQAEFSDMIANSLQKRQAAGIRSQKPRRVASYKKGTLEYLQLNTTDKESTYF

EC50 (read off the curve) [1]: ~0.9 nM
EC50 (read off the curve) [2]: ~1 nM
EC50 (read off the curve) [3]: ~1 nM
EC50 (read off the curve) [4]: ~1 nM
EC50 (read off the curve) [5]: ~0.3 nM
EC50 (read off the curve) [6]: ~0.3 nM
EC50 (read off the curve) [7]: ~0.3 nM
EC50 (read off the curve) [8]: ~0.3 nM
Kd [9]: 0.998 nM
koff [9]: 0.000486 s⁻¹
kon [9]: 487000 M⁻¹ s⁻¹
B1: 5F9-hIgG1 (antibody, V domains shown)
VH: QVQLQQWGAGLLKPSETLSLTCAVFGGSFSGYYWSWIRQPPGKGLEWIGEINHRGNTNDNPSLKSRVTISVDTSKNQFALKLSSVTAADTAVYYCARERGYTYGNFDHWGQGTLVTVSS
VL: EIVMTQSPATLSVSPGERATLSCRASQSVSRNLAWYQQKPGQAPRLLIYGASTRATGIPARFSGSGSGTEFTLTIGSLQSEDFAVYYCQQYKTWPRTFGQGTNVEIKR
notes: also called positive control antibody

Kd [9]: 0.256 nM
koff [9]: 0.000138 s⁻¹
kon [9]: 540000 M⁻¹ s⁻¹
B2: PF1608-hIgG1 (antibody, V domains shown)
VH: EVQLVESGGGLVQPGGSLRLSCAASGFTFSSYWMHWVRQAPGKGLEWIGEIKPSNELTNVHEKFKDRFTISVDKAKNSAYLQMNSLRAEDTAVYYCTRTITTTEGYWFFDVWGQGTLVTVSS
VL: DIQLTQSPSSLSASVGDRVTITCRASESVDYYGSSLLQWYQQKPGKAPKLLIYAASKLASGVPSRFSGSGSGTDFTLTISSLQPEDFATYYCQQTRKAYTFGQGTKLEIKR
notes: also called PF1608-hlgG1; positive control antibody
